According to the nanobody polyreactivity screen of Harvey et al. (2022):

Experiment: yeast display, Sf9 membrane polyspecificity reagent, FACS + sequencing; frameworks hold sequencing errors
Procedure, shortened: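 Galactose-induced (36–48 hours) yeast carrying a synthetic nanobody display library were exposed to 10% biotinylated, detergent-solubilized Sf9 membrane reagent at 4 °C for 1 hour. FACS followed streptavidin microbead enrichment, using low and high (top ~1%) gates for expression (anti-HA) and reagent binding (streptavidin). Colony PCR, MiSeq 2 × 250 sequencing and CDR-length filtering followed. Labels for polyreactivity reflect the gate of origin.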

| Sequence | polyreactivity (PSR sort gate) |
| --- | --- |
| QVQLVESGGGLVQAGGSLRLSCAASGSIFTYYAMGWYRPEPGKERELVAAISRRGTRTYYADSVKGRFTISRDNAKNTVYLQMNSLKPEDTAVYYCAAEYTETGTAKMEYWGQGTQVTVSS | high polyreactivity |
| QVQLVESGGGLVQAGGSLRLICAASGSTFWWYAMGWYRKAPGKEREFVAAIRWSSGSTYYADSVKGRFTISRDNAKNTVYLQMNSLKPEDTAVYYCATDDTSNVYVDLDYWGQGTQVTVSS | high polyreactivity |
| QFQLVETGGGLDQAGGSLRLSCAASGTTFGVYAMGWYRQAPGKERELVAVITSRGGSTYYADSVKGRFTISRDNAKNTVYLQMNSLIPEDTAVYYCNVDSAYRRPPYDYWGQGTQVTVSS | high polyreactivity |
| QVQLVESWGGLVQAGGSLRLSCAASGSTIIGYDMGWYRQAPGKVRELVAAISYSDGTYYADSVKGRFTISRDNAKNTFYLPMNSLKPEDTAVYYCAADSLYYRYDYWGQGTQVTVSW | low polyreactivity |
| QVQLVESGGGLVQAGGSLRLSCAASGFIFGLYDMGWDRQAPGKERELVATISDSGGDTYYSDSVKGRFTISRDNAKNTVYLQMNSMKPEDTAVYYCAAKYVYGRGIRAYDYWVQGTQVTVSS | high polyreactivity |
| QVQLVESGGGLVQAGGSLRLSCAASGRIVLGYAMGWYRQQPGKEMELVAAISRSGGGTFYADSVKGRFTISRDNAKNTVYLQMNSLKPEDTAVYYCNARRGRASGMDYWGQGTQVTVSS | high polyreactivity |
| QVQLVETGGGLVQAGGSLRLSCAASGSIFKNNAMGGYRQAPGKERELVAAIRSYGGSTYYADSVKGRFTISRDNAKNTVYLQMKSLKPEDTAVYYCAARYRSYPTYYQYNYWGQGTQVTVSS | high polyreactivity |
| QVQLVESGGGLVQAGGSLRLSCAASGSTFLKYAMVWYRQAPGKERELVAAITSDGTTYADSVKGRFTISRDNAKNTVYLQMNSLKPEDTAVYYCAKDYRHPTFDYWGQGTQVTVSS | low polyreactivity |
| QVQLVESGGGLVQAGVSLLLSCAASGSTFGYNAMVCYRQAPGKERELVAAITSSGSTTYYADSVKGRFTISRDNAKNSVYLQLNSLKREDTAVYYCNAPAYYLHYGLYARYDYWGQGTQVTVSS | low polyreactivity |
| QVQHVESGGGLVQARGSLRLSCAASGSIFDLNAMGRYRQAPGKERELVAAISSGGGTYYADSVKGRFTISRDNSKNTVYLQMNSLKPVDTAVYYCKRVTRWTYNYWGQGTQVTVSS | high polyreactivity |
| QVQLVESGGGLDQARGSLRLSCAASGFIFQIYAMGWYRQAPGKERELVAAITSRAGSTYYADSVKGRFTISRDNAKNTVYFQMNSLKPEDTAVYFCNKVFFLPTSRAYEYWGQGTQVTVSS | high polyreactivity |
| QVQLVESGGGLVQAGGSLRLSCAASGRTFIYNVMGWYRQAPGKERELVASIRSSGGSTYYADSVKGRFTISRDNAKNSVYLQMNSLKPEDTAVYYCAADRSPGIRCWPGDYWGQGTQVTVSS | low polyreactivity |
| QVQLVESGGGLVQAGGSLRLSCAASGIIFDYNAMGWYRQAPGKERELVAAITSTDNTNYADSVKGRFTISRDNAKNTVYLQMNSLKPEDTAVYYCNTDYLLCVVYAMDYCGQGTQVTVSS | low polyreactivity |
| QVQLVESGGGLVQAGGSLRLSCAASGSIFSSNAMGWYIQAPGKERELVASIDGGPTTYADSVKGRFTISRDNAKNTVYLQMNSLKPEDTAVYYCNADSLDGPKFDYWGQGTQVTVSS | low polyreactivity |
| QVQLVESGGGLVQAGGSLSLSCAASGRIFYVNAMGWYRQAPGKERELVAAISRSGSSTYYADSVKGRFTISRDNAKNTVYLQMNSLKPEDTAVYYCAARYYGRSQHHFDYWGQGTQVTVSS | high polyreactivity |
| QVQLVESGGGLVQAGGSLRLICPASGRIFRYYAMGWYRQARGKERELVAGITTGGGSTYYADSVKGRFTISRDNAKNTVFLQMNSLKPEDTAVYYCAARYYTTYYCGQGTQVTVSS | high polyreactivity |
| QVQLVESGGGLVQAGGSLRLSCAASGITFTQYTMGWYRQARGKQRELVAAISSSGGRTYYADSVKGRYTISRDNAKKTVYLQMNSLKPEDTAVYYCAAAWRRTFDYCGQGTQVTVSS | high polyreactivity |
| QVQLVESGGGLVQAGGSLRLSCAASGRIFYGYAMGWYRQAPGKERELVAAITWIDGSTYYADSVKGRFTISRDNAKNTVYLQMNSLKPEDTAVYFCNKTWYGDSGTRTYWGQVTQVTVSS | low polyreactivity |
| QVQLVESGGGLVQAGGSLRLSCAASGFIFNFYAMGLYRQAPGKERELVAAISRSGGGTYYADSVKGRFTISRDNAKYTVYFQMNSLKPEDTAVYSCNVDKYRIVGFHSPYDYWGQGTQVTVSS | high polyreactivity |
| QVQLVESGGGLVQAGVSLRLSCAASGSTFARYAMGWYRQAPGKERELVAVITQSGSSTYYADSVKGRFTISRDNAKNTVYLQMNSLKPEDTAVYYCAAVGIDYTRYGRYWYSYDYWGQGTQVTVSS | high polyreactivity |
| QVQLVESGGGLVQAGGSLRLSCAASGRIFSVYAMGWYRQAPGKEREFVAAITKGGVGTYYADSVKGRFTISRDNAKNTVYLQMNSLKPEDTAVYYGAARHYYGADRYYSWGQGTQVTVSS | high polyreactivity |
| QVQLVESGGGLVQAGGSLRLSCAASGRIFWDYALGWYRQAPGKERELVAVITFSGDSTYYADSVKGRFTISRDNAKNTVYVQMNSLKPEDTAVYYCAAARAIRQFWYVATFEYWGQGTQVTVSS | low polyreactivity |

| Sequence | polyreactivity (PSR sort gate) |
| --- | --- |
| QVQLVESGGGLVQAGGSLRLSCAASGSTFTAYAMGWYRQAPGKERELVADISDSGGSTYYADSVKGRFTISRDNAKNTVYLQMNSLKPEDTAVYYCAVDVRAYVVSKFDSWGQGTQVTVSS | low polyreactivity |
| QVQLVESGGGLVQAGGSLRLSCAASGSTFRPYAMGWYRQAPGKERELVAAISWSGGRTYYADSVKGRFTISRDNAKNNVYLQMNSLKPEDTAVYYCNRAGRQPKNTYDYWGQGTQVTVSS | high polyreactivity |
| QVQLVESGGGLVQEGASLRLICAASGRTSYRYAMGWNRQAPGKERELVAAISFGGGSTYYADSVKGRFTISRDYAKNTVYLQMNSLKPEDTAVYYCATDRVKYRNIYTDTGFDYWGQGTQVTVSS | high polyreactivity |
| QVQLVESGGGLVQAGGSLRLSCAASGSIFFFYVMGWYRQAPGKERELVAAINNGGSTNYADSVKGRFTISRDNAKNTVYLQMNSLKPEDTAVYYCAADSITSKNQGLDYDYWGQGTQVTVSS | low polyreactivity |
| QVQLVESGGGLVQAGGSLRLSCAASGLTFAYYAMGWYRQAPGKERELVAVISSAGSTYYADSVKGRFTISRDNAKNTVYLQMNSLNPEDTAVYYCAARAPSSISQTRGMYYWGQGTQVTVSS | high polyreactivity |
| QVQLVESGGGLVQAGGSLRLSCAASGSILYTNAMGWYRQAPGKERELVAAITTSGASTYYADSVKGRFTISRDNAKNTVYLQMNSLKPEDTAVYDCAAPSRYRYYWGNYWGQGTQVTVSS | high polyreactivity |
| QVQLVESGGGLVQAGGSLRLSSAASGSTIFLYDMGWYRQAPGKERELVAAITISGGSTYYADSVKGRFTISRDNAKNTVYLQMNSLKPEDTAVYYCAVRTYRFRHWPKYDYWGQGTQVTVSS | high polyreactivity |
| QVQLVESGGGLVQAGGSLRLSCAASGFIIAYYAMGWYRQAPGKERELVAAISRRGGSTYYADSVKGRFTISRDNAKNTVYLQMNSLKPEDTAVYYCAKAHYLSDYNYWGQGTQVTVSS | high polyreactivity |
| QVQLVESGGGLVQAGGSLRLSCAASGNTFVDYAMGWYRQAPGKERELVAAISDGGSTNYADSVKGRFTISRDNAKNTVYLQMNSLKPEDTAVYYCAKDELYIPGVWPYYEYDYWGQGTQLTVSS | low polyreactivity |
| QVQLVESGGGLVQAGGRLRLSCAASGFTFSRNAMGWYRQAPGKERELVAAITASTSRTYYADSVKGRFTISRDNAKNTVYLQMTSLKQEDSAVYYCNAGRPGRGPYGYWGQGTQVTVSS | high polyreactivity |
| QVQLVESGGGLVQAGGSLRLSCAASGRIFRVYAMGWYRQAPGKERELVAAISSSGGSTYYADSVKGRFTISRDNAKNTVYLQMNSLKPEDTAVYYCAAGGLHTIQRPGYYYWGLGTQVTVSS | low polyreactivity |
| QVQLVESGGGLVQAGGSLRLSCAASGSTFLINVLGWYRQAPGKERELVARISWRAATTYYADSVKGRFTISRDNAKNTVYLPMYSLQPEDTAVYYCADDLYKRGFDYWGQGTQVTVSS | low polyreactivity |
| QVQLVESGGGLVQAGGSLRLSCAASGFIFSWYAMGWYRQAPGKERELVAAITSGGSTYYADSVKGRFTISRDNAKNTFYLQMNSLKPEDTAVYYCGTVVTYRYAFPYGYWGQGTQVTVSS | high polyreactivity |
| QVQLVESGGGLVQAGGSLRLSCAASGITFVRYAMGWYRQAPGKERELVAAISSGGRTIYADSVKGRFTISRDHANNTVFVHMNSLKPEDTAVYYCSKRRARSGQDYDYWGQGTQVTVSS | low polyreactivity |
| HVQLVESGVGFVQAGGSLRLSCASSGSIFQAYAMGWYRQAPGNERELVAAISDSGGSTYYADSVKGRFTISRDNAKNTVYLQMNSLKPEDTEVYYCAADVYTRFWRVYRVDYWGQGTQVTVSS | low polyreactivity |
| QVQHVESGGGLVQAGGSLRLSCAASGSIFQKNAMGWYRKAPGKERELVAVITRGGTSTYYADSVKGRFTISRDNAKNTVYLQMNSLKPEDTAVYYCAAKADKRLDYWGQGTQVTVSS | low polyreactivity |
| QVLLQESGGGLVQAGGSLRLSCAASGNIFSAGGMGWYRQAPVNERELVAGIGTGTSTNYADRVKGRFTISRDNAKNTVYLQMNSLKPEDTAVDYCAAAYYSGLSHWYWGQGTQVTVSS | low polyreactivity |
| QDQLVESGGGLVQAGGSLRLSCAASGRTFSRYTMGWYRQAPGKERELVAAISKRGGSTYYADSVKGRLTISRDNAKNTVYLQMNSLKPADTAVYYCNAYGLVGLDGVKMYYWGQGTQVTVSS | high polyreactivity |
| QVQLVESGGGLVQAGGSLRLSCAASGIIFYYYAMGWYRQAPGKERELVAAISRSGGITYYPDSVKGRFTISRDNAKNTEYFQMNSLKAEDTAVYYGNALRLVYYHPEDDYWGQGPQVTVSS | high polyreactivity |
| QVQHVESGGGLVQAGGSLRLSCAASGRTIIKYAMGWYRQAPGKERELVAAISRSAGSTYYADSVKGRFTISRDNAKNTVYLQMNSLKPEDTAVYYCNAVTSSYLRFDYWGQGTQVTVSS | high polyreactivity |
| QVQLVESGGGLVQAGGSLRLSCAASGNTFGLYAMGWYRQAPGKERELVATITWSVSTYADSVKGRFTISRDNAKNTVYLQMNSLKPEDTAVYYCAATTGPWYWRYDYWGQGTQVTVSS | high polyreactivity |
